{"source": "paper PMC3832594", "biological_target": "MCT2 tagged at its N-terminus with CFP (rat) (UniProt Q63344)", "sequence (Q63344 whole entry)": "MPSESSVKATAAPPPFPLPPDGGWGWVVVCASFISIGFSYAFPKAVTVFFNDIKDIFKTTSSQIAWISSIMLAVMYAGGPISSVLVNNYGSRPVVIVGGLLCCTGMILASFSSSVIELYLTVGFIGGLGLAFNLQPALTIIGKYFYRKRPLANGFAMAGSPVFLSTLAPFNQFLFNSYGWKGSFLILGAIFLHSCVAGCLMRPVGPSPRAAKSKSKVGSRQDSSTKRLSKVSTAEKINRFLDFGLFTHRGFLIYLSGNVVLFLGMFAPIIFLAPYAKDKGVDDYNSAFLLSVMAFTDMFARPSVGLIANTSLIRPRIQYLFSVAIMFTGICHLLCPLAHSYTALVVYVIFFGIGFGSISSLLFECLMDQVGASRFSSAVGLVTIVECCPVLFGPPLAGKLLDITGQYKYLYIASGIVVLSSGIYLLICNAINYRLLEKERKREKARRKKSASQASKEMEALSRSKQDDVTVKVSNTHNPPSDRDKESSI", "test": "FRET or BRET; live COS-7 cells co-transfected with MCT2-ECFP (N-terminal) and np55- or np65-EYFP (C-terminal), 48 h after transfection; 37°C, imaging buffer pH 7.4; ratio of emission at 480 nm to 530 nm on excitation at 430 nm (MCT2-CFP alone 1.33±0.016)"}
{"substance": "np55 C-terminally labelled with YFP (natural protein)", "values": [{"measurement": "480:530 nm fluorescence emission ratio (FRET)", "result": 0.797}]}
